Biological target: T1, human GPC-3 on cells (SK Hep1:hGPC-3 transfectants; HepG2) (human, UniProt P51654 25-554)
T1 construct: whole, on cells; The same molecule is used for the transfected SK-Hep1 cells and the GPC-3 positive HepG2 cells; The cell line is named under assay; also called Glypican-3
Experiment: confocal microscopy, cell surface staining of SK Hep1:hGPC-3 cells
Experimental: Incubation of SK Hep1:hGPC-3 and SK Hep1:EV (empty vector control) and HepG2 cells with hNGAL muteins (SEQ ID NOs: 1-6) and staining of GPC-3 and bound hNGAL muteins followed by confocal microscopy. Cells (SK Hep1:GPC-3, SK Hep1:EV or HepG2) were grown at 37° in a humidified CO2 incubator for 24 hrs and exposed to hNGAL muteins 1.0 ug/mL, fixed (4% PFA in PBS) and stained with a rabbit anti-lipocalin antibody overnight at 4° C. prior to addition of secondary donkey anti-rabbit AF568 antibody. For nuclei staining, cells were incubated in 300 uL of DAPI solution (1:50000 DAPI in PBS). Slides were viewed using Leica TCS SP5 DNI6000 CS Confocal Microscope (Leica) using the following lasers. […] Results clearly indicate binding of ail hNGAL muteins (SEQ ID NOs: 2-6) to the cell lines expressing GPC-3 (presence of GPC-3 on the surface of the cells was also confirmed by confocal imaging) and lack of binding of such hNGAL muteins to control cell line (SK-Hep1:EV).

T1 sequence (P51654 25-554 limits assumed): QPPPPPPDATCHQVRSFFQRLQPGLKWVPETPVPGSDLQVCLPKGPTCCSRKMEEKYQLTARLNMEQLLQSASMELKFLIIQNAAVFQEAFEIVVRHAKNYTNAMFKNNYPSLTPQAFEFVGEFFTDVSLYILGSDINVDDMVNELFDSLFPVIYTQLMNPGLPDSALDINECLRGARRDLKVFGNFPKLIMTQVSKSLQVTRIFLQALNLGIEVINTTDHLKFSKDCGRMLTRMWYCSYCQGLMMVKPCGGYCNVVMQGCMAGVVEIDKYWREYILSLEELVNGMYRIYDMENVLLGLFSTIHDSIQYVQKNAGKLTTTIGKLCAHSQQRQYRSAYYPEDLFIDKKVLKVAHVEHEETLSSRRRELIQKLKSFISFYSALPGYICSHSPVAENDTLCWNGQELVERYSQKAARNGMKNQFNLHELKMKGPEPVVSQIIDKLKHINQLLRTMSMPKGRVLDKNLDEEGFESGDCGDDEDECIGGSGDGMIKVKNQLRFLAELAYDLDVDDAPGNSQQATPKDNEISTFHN

B1: lipocalin control (SEQ ID NO: 1) (other)
chain: QDSTSDLIPAPPLSKVPLQQNFQDNQFHGKWYVVGLAGNAILREDKDPQKMYATIYELKEDKSYNVTSVLFRKKKCDYWIRTFVPGSQPGEFTLGNIKSYPGLTSYLVRVVSTNYNQHAMVFFKKVSQNREYFKITLYGRTKELTSELKENFIRFSKSLGLPENHIVFPVPIDQCIDG
notes: also called mature human Lipocalin 2; mature hNGAL
binding result: no binding (tested: 1.0 ug/mL)

— patent publication US20170066807A1 (Pieris, published 2017)
